# Experimental data as given in PMC4839565, “Evolution of Telomeres in Schizosaccharomyces pombe and Its Possible Relationship to the Diversification of Telomere Binding Proteins”.
# T1: Teb1p (6HN-Teb1) (Schizosaccharomyces pombe, UniProt Q10274 2-390)
# T1 sequence: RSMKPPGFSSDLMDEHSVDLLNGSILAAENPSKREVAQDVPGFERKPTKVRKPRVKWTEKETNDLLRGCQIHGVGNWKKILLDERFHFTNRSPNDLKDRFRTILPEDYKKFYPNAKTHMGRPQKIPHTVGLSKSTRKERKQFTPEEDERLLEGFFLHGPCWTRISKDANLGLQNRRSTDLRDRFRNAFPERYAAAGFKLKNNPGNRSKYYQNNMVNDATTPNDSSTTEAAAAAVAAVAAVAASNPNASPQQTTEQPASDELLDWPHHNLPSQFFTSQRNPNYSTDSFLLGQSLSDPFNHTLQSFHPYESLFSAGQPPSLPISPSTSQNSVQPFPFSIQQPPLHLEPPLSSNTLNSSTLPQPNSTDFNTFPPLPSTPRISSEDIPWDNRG
# T2: Taz1p (6HN-Taz1) (Schizosaccharomyces pombe, UniProt P79005 2-663)
# T2 sequence: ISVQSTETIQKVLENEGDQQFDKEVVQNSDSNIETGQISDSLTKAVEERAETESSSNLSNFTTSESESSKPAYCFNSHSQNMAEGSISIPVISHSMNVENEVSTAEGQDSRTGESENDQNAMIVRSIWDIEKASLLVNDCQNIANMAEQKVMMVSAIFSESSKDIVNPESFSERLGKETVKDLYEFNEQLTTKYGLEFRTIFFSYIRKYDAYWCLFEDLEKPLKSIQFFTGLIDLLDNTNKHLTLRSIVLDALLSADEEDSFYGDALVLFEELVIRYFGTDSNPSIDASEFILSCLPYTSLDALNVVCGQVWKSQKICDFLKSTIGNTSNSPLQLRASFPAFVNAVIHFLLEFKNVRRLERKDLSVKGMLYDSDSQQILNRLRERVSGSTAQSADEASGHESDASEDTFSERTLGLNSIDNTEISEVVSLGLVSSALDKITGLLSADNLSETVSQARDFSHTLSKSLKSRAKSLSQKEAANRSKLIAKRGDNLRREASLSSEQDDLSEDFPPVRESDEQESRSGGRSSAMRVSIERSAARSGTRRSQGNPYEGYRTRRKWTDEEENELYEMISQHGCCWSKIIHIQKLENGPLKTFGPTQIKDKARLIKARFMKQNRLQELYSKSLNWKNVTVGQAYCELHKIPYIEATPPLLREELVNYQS
# B1: HsTEL (dsDNA)
# DNA 1: GTTAGGGTTAGGGTTAG
# DNA 2: CTAACCCTAACCCTAAC
# B2: HisBoxFlankPart (dsDNA)
# DNA 1: AGGGTTAGGGTTACAGC
# DNA 2: GCTGTAACCCTAACCCT
# B3: HisBoxMut (dsDNA)
# DNA 1: AGGGTGTGAGTTGTGAT
# DNA 2: ATCACAACTCACACCCT
# B4: HisBox (dsDNA)
# DNA 1: AGGGTTAGGGTTGTGAT
# DNA 2: ATCACAACCCTAACCCT
# B5: SpTEL (dsDNA)
# DNA 1: TTACAGGGGGTTACAGGG
# DNA 2: CCCTGTAACCCCCTGTAA
# Legend:
# [1] = biological target: T1, Teb1p (6HN-Teb1); assay: fluorescence anisotropy; HNE, no DTT, 25 C; HNE: 20 mM HEPES-NaOH pH 7.5, 1 mM EDTA, 100 mM NaCl (Teb1); HNED = HNE + 0.1 mM DTT (Taz1). FA: 2 nM DNA, 25 C (Teb1/SpTEL 37 C). EMSA: 15 nM DNA, 0.05-4.5 uM; settings: protein: recombinant; tags: N-terminal 6HN; C-terminal GST removed with PreScission protease (residual site residues); EMSA: 5'-32P on strand A; blunt
# [2] = biological target: T2, Taz1p (6HN-Taz1); assay: fluorescence anisotropy; HNED, 0.1 mM DTT, 25 C; HNE: 20 mM HEPES-NaOH pH 7.5, 1 mM EDTA, 100 mM NaCl (Teb1); HNED = HNE + 0.1 mM DTT (Taz1). FA: 2 nM DNA, 25 C (Teb1/SpTEL 37 C). EMSA: 15 nM DNA, 0.05-4.5 uM; settings: protein: recombinant; tags: N-terminal 6HN; chain copies: 2; EMSA: 5'-32P on strand A; blunt
# [3] = biological target: T1, Teb1p (6HN-Teb1); assay: EMSA; no DTT; almost complete restoration; HNE: 20 mM HEPES-NaOH pH 7.5, 1 mM EDTA, 100 mM NaCl (Teb1); HNED = HNE + 0.1 mM DTT (Taz1). FA: 2 nM DNA, 25 C (Teb1/SpTEL 37 C). EMSA: 15 nM DNA, 0.05-4.5 uM; settings: protein: recombinant; tags: N-terminal 6HN; C-terminal GST removed with PreScission protease (residual site residues); label: 5'-32P on strand A; blunt
# [4] = biological target: T1, Teb1p (6HN-Teb1); assay: EMSA; no DTT; HNE: 20 mM HEPES-NaOH pH 7.5, 1 mM EDTA, 100 mM NaCl (Teb1); HNED = HNE + 0.1 mM DTT (Taz1). FA: 2 nM DNA, 25 C (Teb1/SpTEL 37 C). EMSA: 15 nM DNA, 0.05-4.5 uM; settings: protein: recombinant; tags: N-terminal 6HN; C-terminal GST removed with PreScission protease (residual site residues); label: 5'-32P on strand A; blunt
# [5] = biological target: T1, Teb1p (6HN-Teb1); assay: fluorescence anisotropy; HNE, no DTT, 37 C; HNE: 20 mM HEPES-NaOH pH 7.5, 1 mM EDTA, 100 mM NaCl (Teb1); HNED = HNE + 0.1 mM DTT (Taz1). FA: 2 nM DNA, 25 C (Teb1/SpTEL 37 C). EMSA: 15 nM DNA, 0.05-4.5 uM; settings: protein: recombinant; tags: N-terminal 6HN; C-terminal GST removed with PreScission protease (residual site residues); EMSA: 5'-32P on strand A; blunt
Binder,Kd [1],Kd [2],further results
B1,31 ± 5 nM,54 ± 5 nM,–
B2,–,–,binding result [3]: binds
B3,–,–,binding result [4]: no binding
B4,53 ± 6 nM,380 ± 50 nM,–
B5,–,115 ± 9 nM,Kd [5]: 380 ± 30 nM
